# Measurements from the RNAGym collection of RNA variant scans (doi:10.1073/pnas.2313332121).
# B1: TPR t1 (parent)
# chain: GACCAAUCUGCCCUCAGAGCUCGAGAACAUCUUCGGAUGCAGAGGAGGCAGGCUUCGGUGGCGCGAUAGCGCCAACGUCCUCAACCUCCAAUGCAUCCCACCACAUGAUGAUGCCUGAAGAGCCUUGGUUUUUUG
# Variants of: B1
# Assay: polymerase ribozyme fitness, log enrichment relative to wild type (log ratio); higher = more active; in vitro selection for triplet polymerase activity
# In short: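 A heterodimeric triplet polymerase ribozyme had each of its subunits mutagenized by PCR into a library, which was transcribed. One round of in vitro selection, done in triplicate, annealed each library with a biotinylated primer, its partner subunit and triplets, then incubated it frozen at −7 °C before gel excision of extended constructs, streptavidin-bead capture and RT-PCR. Fitness is the logarithm of genotype enrichment relative to wild-type enrichment, based on Illumina sequencing of inputs and outputs and inverse-variance-weighted replicate averages. A base-2 logarithm is used, and genotypes were kept only with ≥10 input reads and ≥1 read per output.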
row,Variant,polymerase ribozyme fitness (log ratio)
1,C72A,0.126
2,C72U,-0.393
3,C72G G117U A121U G127A,-3.25
4,C72G C114U,-2.37
5,A74U A121U C124A,1.47
6,G71U C101U U130G,-0.458
7,C72G C82G,-1
8,C72G C82A,-1.18
9,C73G A83U C88G U130A,-3.2
10,C72U U81G C85A,-3.96
11,C73G U116C U131A,-1.53
12,G71U G110U,-1.24
13,C72A C73A,-0.947
14,C72U A95C,-0.818
15,C72U C115U U129G,-2.18
16,G71U G93U,-0.956
17,C72G C88U U129A,-0.881
18,C73U U129G,-0.782
19,C73U U129A,-1.05
20,C72U C99U,-3.71
21,C72G G117U,-2.41
22,C72G G117A,-1.8
23,C73U U126A,-1.7
24,C72U C86U G107U G113U,-6.11

row,Variant,polymerase ribozyme fitness (log ratio)
1,C72G U112A U129A,0.0162
2,C72A U87A,0.169
3,C73A U78C C94U,-0.492
4,C72U G77U,-0.309
5,C72A C114U,-1.24
6,C73U C98A,-4.94
7,C72U C79A A83G C115G C123A U131G,-4.99
8,C72A C98A U131A,-5.63
9,C73U C88U,-0.361
10,C72G U81A C82G G128C,-4.54
11,A74C U130A,-0.25
12,C73A U126A,-1.73
13,C73U U132C,-0.238
14,C76G U81C C94A G117A,-2.22
15,A74C A84U,-0.261
16,G71C U81G,-5.8
17,C73U C115U,-0.667
18,C76A A121U U125G,0.374
19,C76U A90G A105U,-1.84
20,G71U U81A C123A,-1.04
21,A74C U106A C123U,1.18
22,C73A U106G G110C,-4.6
23,C72A A118U,0.818
24,C72G C94U,0.173

row,Variant,polymerase ribozyme fitness (log ratio)
1,C72U G110U U125A,-2.31
2,C73U U96A,-1.16
3,C72U G120A C124U,1.83
4,C73G C101U,-0.446
5,C72G U87A,-2.08
6,C72U A119U,-0.327
7,G71U U87C,-0.194
8,A74G G77U C123U,0.945
9,A74C G77C,-0.117
10,C73G C104A,-1.94
11,A74U A111C,-1.62
12,A75G C123U,1.55
13,C73A A91U C94U,-2.58
14,A75U C97A,-5.53
15,C72U C86A A90G G110A,-1.38
16,C73G A90G C104U U112C A121U U130C,1.89
17,C73U C86A,-0.276
18,C73A U87A G120C C124A U132G,-4.42
19,C76U U81A,-0.892
20,C73U C124A G127C,1.61
21,A75U C99U U109G C115U U116A,-7.29
22,C76U C79A G120C,0.319
23,C72A C124G,2.23
24,C72A C124A,1.27

row,Variant,polymerase ribozyme fitness (log ratio)
1,C73U C89U C101U,-0.461
2,G71U C79G,-2.2
3,G71U A121U,2.07
4,C76U A105C,-2.5
5,C73A C104A,-1.07
6,C72A U87G A111G,0.26
7,C73A C123A G135C,0.5
8,C72A U81G G110U,-6.47
9,C72U A75U C114A G122C,-2.52
10,C73A C102U G128C,-3.88
11,C73U G120A,0.593
12,C72G A91C,-1.51
13,C72G A91G,-1.13
14,A75U C76G C88A A90U C114U,-2.85
15,A75G C88G,-1.04
16,C73A C88G A111U U129G,-5.91
17,A75G C82U A121G C124G,1.16
18,A74U G110C,-4.41
19,C73A G117U,-2.74
20,C72G G107A,-4.9
21,C73A C124G,0.687
22,C72U A118C,-2.89
23,C72U G120C U131G,0.516
24,C72A A83U,-0.322

row,Variant,polymerase ribozyme fitness (log ratio)
1,C72U C101G G117U,-3.6
2,C72A G113U G120A U132A,-2.87
3,C72A G117A,-1.19
4,C72G G93A,-0.585
5,A74C G113U C115U G117A C123A,-6.47
6,A74U G93U G117C,-5.37
7,G71U U131A U133G,-1.3
8,C73A C85U U116G,-2.18
9,C73U A75G G77A U109G,-6.15
10,C72G G117C U130G,-4.4
11,G71U U112C,1.34
12,A74C U78G C80U C115A,-2.23
13,C72G C102U U106G,-4.73
14,C73U G113A,-0.0568
15,C72U C99U A119U,-3.8
16,C73U U81A,-3.27
17,A74C C76A A121C,-1.23
18,C72G C82U C102A G120A,-1.89
19,C72A A103U C124G U131C,-2.63
20,C73A C86U,1.13
21,A74C C101U U132C,-0.834
22,C72U C98U,-1.53
23,C73U C101G G120U,-0.999
24,C73U C79A A90C C115A,-2.96

row,Variant,polymerase ribozyme fitness (log ratio)
1,A74U U126G,-1.89
2,C73U U78A C88G G120U,-1.15
3,G71U C115G,-1.74
4,C73G G110A,-1.17
5,C72U C94G A103G G113U U126A,-5.45
6,G71U C86A,-2.02
7,C72U A91C G93U U126G,-4.23
8,C73A C86U G128A,-1.81
9,C72A U109A C123U,-6.2
10,G71U C89A,-2.47
11,G71U C102G U112A G127U,-5.37
12,C73G U109G,-6.77
13,C73G U109A,-5.36
14,C72U U133G,-0.942
15,C72G C82A C85A A95U,-4.18
16,C72G U78C U109A,-6.55
17,C72U C114U,-1.89
18,C72U G110U,-1.17
19,C72U G110A,-1.45
20,C72G C86G A121U U125A G135U,-2.76
21,C72U U129G,-1.46
22,C72U U78G U109C,-5.41
23,A74C C101G,-2.14
24,C72U C85U,-1.48

row,Variant,polymerase ribozyme fitness (log ratio)
1,C76U G110C,-4.7
2,C73U C79U C104U,-0.0392
3,C73G G120A U129G,-1.1
4,C72U C82U C98U A119G,-0.0419
5,C72U C114U C123U U130A G135A,-2.43
6,C76U C94A U106C U112C,0.627
7,C73A A91G,-0.975
8,C73A A91U,-0.926
9,C73A U129C,-0.459
10,C73G G117A C124A,0.864
11,C72U C88A C101A,-1.43
12,C73U U125A,-0.171
13,C72U C104U,-0.541
14,C76G C82G G128U,-3.7
15,C73U G127U,-0.489
16,C73U G127C,-0.681
17,G71U C73A A83U,-2.73
18,C72U A75C A118U G120U,-0.721
19,C73U A90C A95C,-1.36
20,C73G U129G,-2.27
21,C72U U96A,-1.65
22,C72A C85U C102U A121G U133A,0.201
23,C73U U87A A105U,-1.83
